# Measured values reported in the supplement of paper PMC10724198.
# ± gives the standard deviation of the averaged measurements.
# Test system: Saccharomyces cerevisiae
# Test: protein stability index of tFT-peptide fusion (C-terminal peptide) (PSI (0-1 scale)); higher = more stable (slower turnover)
# Conditions: genetic background: wild type; temperature: 30 C
# Method: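 Multiplexed protein stability (MPS) profiling in S. cerevisiae. Random 12-aa peptides (tFT-X12 library) are fused to the C-terminus of a sfGFP-mCherry tandem fluorescent timer, after mCherry and a GGGS linker. Cells are FACS-sorted into 8 mCherry/sfGFP bins and deep-sequenced. The protein stability index (PSI) is the read-weighted bin average, scaled from 0 (unstable) to 1 (stable). Only peptides with >10 reads are reported; cells were grown at 30 °C in SC-His with glucose.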
# 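Also: PSI is a weighted mean of sequencing reads over stability bins, variants kept only with over 10 reads, mCherry proximal and sfGFP distal, peptide attached via GGGS linker.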
row,Sequence,protein stability index
1,EPDQERKSIQGM,0.7 ± 0.013
2,EPPRSPRSLPPL,0.661 ± 0.0073
3,EPTLLVRMVANR,0.529 ± 0.026
4,EQGIRHVRAIVV,0.539 ± 0.012
5,EQRNLELSGHIC,0.725 ± 0.12
6,ERCVCLRGVSSG,0.708 ± 0.011
7,EREGVREGEGRV,0.654 ± 0.02
8,ERGGWGGGSEVG,0.684 ± 0.091
9,ERIKQGKKKRGT,0.778 ± 0.12
10,ERKGIIIGHSHS,0.71 ± 0.037
11,ERKKPKKKRMRY,0.706 ± 0.011
12,ERLHRRRRGECA,0.6743 ± 0.0061
13,ERPQTKPCQTPL,0.728 ± 0.038
14,ERWSHNKEDDRN,0.6577 ± 0.0048
15,ERYKKRGKTNKV,0.662 ± 0.0076
16,ESAGLAGLSRAA,0.668 ± 0.022
17,ESEKKHNKKRRV,0.654 ± 0.069
18,ESLRNGKKYNKL,0.7417 ± 0.0017
19,ESLSAVAAGRGM,0.689 ± 0.024
20,ETEQTSIRRIKQ,0.728 ± 0.012
21,ETKKGKKKKMTM,0.682 ± 0.0069
22,ETVIQRFLSGHI,0.699 ± 0.017
23,EVDSTLAPHGHP,0.866 ± 0.041
24,EVEGFLFVFEVK,0.609 ± 0.015
25,EVFGLWQGCFVW,0.728 ± 0.058
26,EVGQLQPNGGWV,0.661 ± 0.033

row,Sequence,protein stability index
1,EVNYKKRQNKKN,0.71 ± 0.0066
2,EVTRAGEDAGDG,0.643 ± 0.023
3,EVTSQGWRNGVD,0.742 ± 0.028
4,EVWQGRLKGVLG,0.691 ± 0.031
5,EWEEGREIGGRV,0.69633 ± 0.00068
6,EWGEEDRDGNGR,0.721 ± 0.053
7,EWPTESSLSSET,0.689 ± 0.081
8,EWTTEQRSVGPR,0.683 ± 0.02
9,EWVCRAGVQGGA,0.691 ± 0.017
10,EWVYSGDGMGVG,0.622 ± 0.03
11,EWYRNNFFFLDL,0.772 ± 0.02
12,EYLHPARITGVL,0.733 ± 0.11
13,EYRVRHSVDARS,0.6241 ± 0.0019
14,EYVDVDVQDCRG,0.692 ± 0.035
15,FAGLVSPASLHP,0.686 ± 0.026
16,FAISTSMVNLAM,0.681 ± 0.039
17,FAPSPVPPLAPF,0.682 ± 0.053
18,FASLVSPWFDLV,0.716 ± 0.13
19,FASLVVSYGAGY,0.6712 ± 0.0019
20,FASVVADVFQFP,0.772 ± 0.088
21,FCCGGEFAWCLG,0.695 ± 0.016
22,FCCRLSGFSILG,0.663 ± 0.033
23,FCFFGRPCLSSV,0.714 ± 0.14
24,FCKTKVRDKATR,0.73 ± 0.035
25,FCLLPPFPFFRS,0.661 ± 0.022
26,FCLSPGYHSQLC,0.692 ± 0.023

row,Sequence,protein stability index
1,FCTDFDTLCREC,0.647 ± 0.021
2,FCVFSFAAPGFP,0.6746 ± 0.00074
3,FCWRDIICAFFR,0.72 ± 0.019
4,FCWSFGVLLSFS,0.559 ± 0.0099
5,FDCTSCIPFRFL,0.679 ± 0.035
6,FDLLSVGRARSW,0.716 ± 0.036
7,FDSLFVSLSFAI,0.661 ± 0.03
8,FFAPPSSPSFSR,0.822 ± 0.063
9,FFDFCACICTFF,0.655 ± 0.045
10,FFGSFVFSLLFY,0.6025 ± 0.0047
11,FFLLPHPSRFFP,0.734 ± 0.025
12,FFLSDDALVYNH,0.788 ± 0.065
13,FFLWSLLGGLPC,0.661 ± 0.02
14,FFPLSALFARPS,0.676 ± 0.0073
15,FFPQLRPNSSTS,0.724 ± 0.042
16,FFRFLLPFLPPS,0.70866 ± 0.0006
17,FFSPPLPPAPLT,0.775 ± 0.057
18,FFSVCLVFGLPG,0.543 ± 0.013
19,FFTDACQRVMKG,0.633 ± 0.049
20,FFWFIASTNFSS,0.609 ± 0.015
21,FGAFCSWLLLHS,0.61 ± 0.026
22,FGCDCFCPFCLR,0.706 ± 0.019
23,FGDTYICKPFWG,0.765 ± 0.033
24,FGESPWARVGGG,0.5749 ± 0.005
25,FGFSAVCFGNLC,0.6729 ± 0.0024
26,FGGSFEGRGRYY,0.737 ± 0.018

row,Sequence,protein stability index
1,FGTVIEVVCGVM,0.5277 ± 0.0014
2,FGVGSITDEELD,0.735 ± 0.036
3,FGYEPVSLRAEF,0.675 ± 0.029
4,FILSPGHFHRVL,0.688 ± 0.076
5,FILTSLPSLCFP,0.696 ± 0.04
6,FILWSLIMGPYA,0.522 ± 0.019
7,FIPGGPSGFCFR,0.669 ± 0.075
8,FIVGIQTKPVKL,0.661 ± 0.11
9,FKFCLRSESSSE,0.66 ± 0.085
10,FKIFSGLVTLGG,0.7337 ± 0.0036
11,FKKTSRHTINRK,0.757 ± 0.023
12,FKNVTGWLFFCR,0.702 ± 0.064
13,FKTLIRKEQESE,0.754 ± 0.013
14,FLCLLPLRLFGI,0.603 ± 0.021
15,FLDFLFLLVPSV,0.554 ± 0.019
16,FLDTSSYFMFAS,0.7123 ± 0.007
17,FLFCLLGSFRSF,0.5829 ± 0.004
18,FLGEKTCRSIIS,0.646 ± 0.083
19,FLGFGGAWSWGG,0.766 ± 0.16
20,FLHVSLSFSCSL,0.541 ± 0.0063
21,FLLPQLFVSSSF,0.699 ± 0.035
22,FLLSVVQGAVHQ,0.6 ± 0.036
23,FLLVPSPPSFTH,0.715 ± 0.12
24,FLPCPPSPPSPR,0.765 ± 0.06
25,FLPQCLGSNFHL,0.725 ± 0.016
26,FLRLVRIPNQVQ,0.6531 ± 0.0014

row,Sequence,protein stability index
1,FLSRPIGAAIWA,0.543 ± 0.026
2,FLSYPFLSRPFL,0.804 ± 0.058
3,FLTSTLVSSGGD,0.676 ± 0.034
4,FLTVDGKLMRGP,0.699 ± 0.021
5,FLVCFPFALFGA,0.495 ± 0.052
6,FLYELGTTSSPR,0.73 ± 0.025
7,FLYPPAHPLLPP,0.7 ± 0.024
8,FMPRPSNRLSPS,0.723 ± 0.0078
9,FNGAISESGLPT,0.664 ± 0.053
10,FNIPYLVQATGD,0.676 ± 0.09
11,FNTCCQNTWKVK,0.677 ± 0.15
12,FPAPPPPPRPAS,0.69 ± 0.033
13,FPFCAFPPSPTC,0.75 ± 0.038
14,FPFLAPSLVLPT,0.569 ± 0.012
15,FPFPTLSDLRPT,0.698 ± 0.036
16,FPGLHVNHPAWP,0.688 ± 0.027
17,FPHPPPSLPSPR,0.789 ± 0.064
18,FPHSPPFRLPLS,0.759 ± 0.089
19,FPLHPLLTSISL,0.68 ± 0.032
20,FPLHSSLSGPPC,0.737 ± 0.0083
21,FPLLGRCCRAVQ,0.682 ± 0.043
22,FPLPHVIPSPAS,0.559 ± 0.022
23,FPLPLPVLSSPS,0.646 ± 0.15
24,FPLSFLLDLLLV,0.509 ± 0.013
25,FPLTKASSPSLL,0.672 ± 0.073
26,FPLVPPPSSPLF,0.687 ± 0.022

row,Sequence,protein stability index
1,FPPAHPPPCLPP,0.6473 ± 0.003
2,FPPPLPLLSPLP,0.671 ± 0.079
3,FPPPPPPPPPSP,0.723 ± 0.028
4,FPPPPPVPPPLS,0.723 ± 0.047
5,FPPPPRPSSPLL,0.693 ± 0.024
6,FPPPPYPEFYPC,0.798 ± 0.077
7,FPPSDPAPTLPP,0.749 ± 0.088
8,FPRFGRGVGRRT,0.67 ± 0.0073
9,FPRPSLPFPPHR,0.609 ± 0.00064
10,FPRRLLPLSPPP,0.704 ± 0.015
11,FPRRPSPGPLIS,0.678 ± 0.035
12,FPSCVLGGWYCG,0.7114 ± 0.0016
13,FPSPSLSSLPPL,0.725 ± 0.058
14,FQCLPHGFYFGA,0.661 ± 0.0098
15,FQFSFLRFGGCA,0.651 ± 0.048
16,FQLFLPPFRLPP,0.801 ± 0.18
17,FQSSSKSRPRPA,0.669 ± 0.057
18,FQWAPGIDTVYC,0.705 ± 0.058
19,FRAYCLPCNYHR,0.68 ± 0.052
20,FRCQHVRVSASF,0.799 ± 0.028
21,FRDEVLGSGVGS,0.65 ± 0.017
22,FRELIRPSKENR,0.664 ± 0.025
23,FRFSELPTGFGQ,0.664 ± 0.058
24,FRGTLRFYRPVN,0.696 ± 0.016
25,FRGTVYRGTRPR,0.622 ± 0.072
